Assay results reported in the nanobody polyreactivity screen of Harvey et al. (2022).

Assay: yeast display, Sf9 membrane polyspecificity reagent, FACS + sequencing; frameworks hold sequencing errors
How it was run: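 A synthetic nanobody library was expressed on Saccharomyces cerevisiae BJ5465 by galactose induction for 36–48 hours. The library was stained for 1 hour at 4 °C with 10% biotinylated, detergent-solubilized Sf9 membrane reagent and enriched with streptavidin microbeads before FACS. Low and high (top ~1%) gates were set on anti-HA fluorescence for expression and streptavidin fluorescence for reagent binding, and each polyreactivity label reflects the gate of origin.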

Sequence | polyreactivity (PSR sort gate)
QVQLVESGGGLVQAGGSLRLSCAASGSTIFENVMGWYRQAPGKEREFVAAINTSGGSTYYADSVKGRFTISRDNAKYTVYLQMNSLKPEDTAVYYCARDSYWEMDYWGQGTQVNVSS | low polyreactivity
QVQLVESGGGLVQAGGSLRLSCAASGSTIFFNAMGWYRQAPGKERELVAGISSSGGSTHYADSVKGRFTISRDNAKNTVYLQMNSLKPEDTAVYYCNAQQYLPSEGDYWGQGTQVTVSS | low polyreactivity
QVQLVESGGGLVQAGGSLRLSCAASGSTIFLYDMGWYRQAPGKESELVAAITISGGSTYYADSVKGRFTISRDNAKNTVDLQMNSLKPEDTAVYYCAADRQWISLFGYPDGYDYWGQGTQVTVSS | high polyreactivity
QVQLVESGGGLVQAGGSLRLSCAASGSTIGFYAMGWYRQAPGKERELVAANSWTGGGTYYADSVKGRFTISRDNAKITVYLQMNSLKPEDTAVYYCARLYYFNGDFWGQGTQVTVSS | high polyreactivity
QVQLVESGGGLVQAGGSLRLSCAASGSTIGKNVMGWYRQAPGKEREVVAAISARGGRSYYADSVKGRFTISRDIAKNTVYLQMNSLKPEDTAVYYCNTERSYTGTGRYRSSTAYGYWGQGTQVTVSS | high polyreactivity
QVQLVESGGGLVQAGGSLRLSCAASGSTIISYAMGWYRQAPGKERELVAAISSGGGRTSYADSVKGRFTISRDNAKNTVYLQMNSLKPEDTAVYYCNTKQLPYAEGYWGQGTQVTVSS | low polyreactivity
QVQLVESGGGLVQAGGSLRLSCAASGSTIKSNVLGWYRQAPGKERELVAAISSGDSTYYADSVKGRFTISRDNGKNTVYFQLNSLKPVDTAVFYCAARLGLQLVDTPDNDYWGQGTEVTVSS | low polyreactivity
QVQLVESGGGLVQAGGSLRLSCAASGSTILHYAMGWYRQAPGKEREFTYYADSVKGRFTISRDNAKNTVCLQMNSLTPEDTAVYYCNADPAVSGGSIATDEYDYWVQGTQVTVSS | low polyreactivity
QVQLVESGGGLVQAGGSLRLSCAASGSTILINAMGWYRQAPGKERELVAAISRDGSTNYADSVKGRFTISRDNAKNTVYLQMNSLKPEDTAVYYCAAVPGISVGRQPGYDYDYWGQGTQVTVSS | low polyreactivity
QVQLVESGGGLVQAGGSLRLSCAASGSTIPLYAMGWYRQAPGKERELVAAISRRGGRTYYADSVKGRFTISRDNAKNTVYLQMNSLKPEDTAVYYCATAQGSRVDYWGQGTQVTVSS | high polyreactivity
QVQLVESGGGLVQAGGSLRLSCAASGSTIPYYAMGWYRQAPGKERELVARIRWNGDSTFYADSVKGRFTISRDNAKNTVYLQMNSLKTEDSAVYYCAAYGKRLGERLNYYYWGQGTQVTVSS | high polyreactivity
QVQLVESGGGLVQAGGSLRLSCAASGSTIQQYAMGWYRQAPGKEREFVAAISWRGGRTYYADSVKGRFTISRDNAKNTVSLQMNSLKPEDTAVYYCAVDPSIYRLSAYYYDYWGQGTQVTVSS | low polyreactivity
QVQLVESGGGLVQAGGSLRLSCAASGSTIRANAMGWYRQAPGKERELVAAITKNGGSTYYADSVKGRFTISRDNAKNTVYLQMNSLKPEDTAVYYCAARRSSRRPPYYYWGQGTQVTVSS | high polyreactivity
QVQLVESGGGLVQAGGSLRLSCAASGSTIRDYAMGWYRQAPGKDRELVAVIDNSGGRTYYADSVKGRFTISRDNAKNTVYLQMNSLKPEDTAVYYCNTRRIAQYGYWGQGTQVTVSS | high polyreactivity
QVQLVESGGGLVQAGGSLRLSCAASGSTIRHYAMGWYRQAPGKERELVAAISSGARTYYADSVKGRFTISRDNAKNTVYLQMNSLKPEDTAVYYCAARYNGYAYPYYYWGQGTQVTVSS | high polyreactivity
QVQLVESGGGLVQAGGSLRLSCAASGSTIRVNVMGWYRQAPGKERELVAAITTSGGSTYYADSVKGRFTISRDNAKNTVYLQMNSLKPEDTAVYYCNTTYPSGWGPDMDYWGQGTQVTVSS | low polyreactivity
QVQLVESGGGLVQAGGSLRLSCAASGSTIRWYAMGWDRQAPGKERELVASITWSGGGTYYADSVKGRFTISRDNAKNTVYLQMNSLKPEDTAVYYCNRRTWRYETRGDDYWGQGTQVTVSS | high polyreactivity
QVQLVESGGGLVQAGGSLRLSCAASGSTIRYYAMGWYRQAPGKERELVAAITKSGGSTYYADSVKGRFTISRDNAKKTVYLQMNSLKPEDTAVYYCAAVRRWYYPALSEHDYWGQGTQVTVSS | low polyreactivity
QVQLVESGGGLVQAGGSLRLSCAASGSTIRYYAMGWYRQAPGKERELVAAITKSGGSTYYADSVKGRFTISRDNAKNTVYLQMNSLKPEDTAVYYCAAVRRWYYPALSEHDYWGQGTQVTVSS | low polyreactivity
QVQLVESGGGLVQAGGSLRLSCAASGSTISYYAMGWYRQAPGKERELVAGISGSTGTTYYADSVKGRFTISRDNAKNTVYLQMNSLKPEDTAVYYCAKLFPVARPQYGYWGQGTQVTVSS | low polyreactivity
QVQLVESGGGLVQAGGSLRLSCAASGSTITHNAMGWYRQAPGKERELVATISSGGSTNYADSVKGRFTISRDNAKNTVYLQMNRLKPEDTAVYYCAKPRYRSHVVYGPASGDDYWGQGTQVTVSS | low polyreactivity
QVQLVESGGGLVQAGGSLRLSCAASGSTITQYAMGWYRQAPGKEREFVAAINSRGDSTYYADSVKGRFTISRDNAKNTVYLQMNSLKPEDTAVYYCNADYQTDDDPYGYDYWGQGTQVTVSS | low polyreactivity

Sequence | polyreactivity (PSR sort gate)
QVQLVESGGGLVQAGGSLRLSCAASGSTIVDYAMGWYRQAPGKERELVAAITSGDSTNYADSVKGRFTISRDNAKNTVYLLMKSLKPEDTAVYYCAARLRYSFWYWDDYWGQGTQVSVSS | high polyreactivity
QVQLVESGGGLVQAGGSLRLSCAASGSTIVRYAMGWNRQAPGKERELVAAISSRGGCTYYADSVKGRFTISRDNAKNTVYLQMNSLKPEDTAVYYCNADYSVGSWGQGTQVTVSS | high polyreactivity
QVQLVESGGGLVQAGGSLRLSCAASGSTIVYNAMGWYRQAPGKEREFVAAISWSGGSTYYADSVKGRFTISRDNAKNTVYLQMNSLKPEDTAIYYCAATSRSNGFRYYYWGQGTQVTVSS | high polyreactivity
QVQLVESGGGLVQAGGSLRLSCAASGSTIWYYVMGWYRAAPGKERELVAAIRSNDGSTYYADSVKGRFTISRDNAKNTDYLQLNRLKPEDTAVYYCAADDWVYAQEYDYWGQGTQVTVSS | low polyreactivity
QVQLVESGGGLVQAGGSLRLSCAASGSTIYDNAMGWSRQAPGKERELVAAITWSVGRTYYADSVKGRFTISRDNAKNTVYLQMNSLKPEDTAVYYCAARYQYYSTYGVTLDYWGQGTQVTVSS | low polyreactivity
QVQLVESGGGLVQAGGSLRLSCAASGSTIYTYVMGWYRPAPGKERELVAAISWSGSSTYYADSVKGRFTISRDNAKNTVYLQMNSLKPEDTAVYYCNAQYRRGWWGVEYGYWGQGTQVTVSS | low polyreactivity
QVQLVESGGGLVQAGGSLRLSCAASGSTLARNVMGWYRQAPGKERELVAAISTSGGITYYADSVKGRFTISRDNAKNTVYLQMNSLKPEDTADYYCAKYYYNPYSKMDYWGQGTQVTVSS | low polyreactivity
QVQLVESGGGLVQAGGSLRLSCAASGSTLASYAMGWYRQAPGKERELVAAISLSGGSTYYADSVKGRFTISRDNAKNTVYLQMNSLKPEDTAVYYCAAETVRYEWGESPAALFDYWGQGTQVTVSS | low polyreactivity
QVQLVESGGGLVQAGGSLRLSCAASGSTLASYAMGWYRQAPGKERELVAAISSSGGSTYYADSVKGRFTISRDNAKNTVYLQMNSLKPEDTAVYYCAARTRTRYGIDYYWGQGTQVTVSS | high polyreactivity
QVQLVESGGGLVQAGGSLRLSCAASGSTLATNAMGWYRQAPGKERELVAYADSVKGRFTISRDNAKNTVYLQMNSLKPEDTAVYYCNVEAPGRAQYGYPQGDYWGQGTQVTVSS | low polyreactivity
QVQLVESGGGLVQAGGSLRLSCAASGSTLAVYAMGSYRQAPGKERELVAAISKRGGTTYYADSVKGRFTISRDNAKNTVYLQMYSLKPDDTAVYYCARESYYRGNYDYDYWGQGTQVTVSS | high polyreactivity
QVQLVESGGGLVQAGGSLRLSCAASGSTLDRNTMGWYRQAPGKERELVAAITSSGGRTYYADSVKGRFTISRDNEKNTVYFQMNSLKPDDTAVYYCNNDYWKRPVDEYDYWGQGTQVTVSS | high polyreactivity
QVQLVESGGGLVQAGGSLRLSCAASGSTLDRYVMGWYRQATGKERELVAAISRNGGSTYYADSVKGRFTISRDNAKNTVYLQMNSLIPEDTAVYNCARYAGFPYTQGDYWGQGTQVTVSS | high polyreactivity
QVQLVESGGGLVQAGGSLRLSCAASGSTLDVYAMGWYRQAPGKERELVAAITVRATSTYYADSVKGRFTISRDNAKNTVYLQMNSQKPEDTAVYYCDARYEFFYKAFDVDSWGQGTQVTVSS | low polyreactivity
QVQLVESGGGLVQAGGSLRLSCAASGSTLDYNAMGWYRQAPGKEREFVADITWSGGSTHYADSVKGRFTISRDNSKNTVYLQMNSLKPEDTAVYYCATAYYYHGGYYYPYDDYWGQGTQVTVSS | low polyreactivity
QVQLVESGGGLVQAGGSLRLSCAASGSTLEFNAMGWYRQAPGKERELVAVINRSDGSTYYADSVKGRFTISRDNAKNTVYLQMNSLKPEDTADYYCAADRHQVSVISTEDYWGQGTQVTVSS | low polyreactivity
QVQLVESGGGLVQAGGSLRLSCAASGSTLEYYAMGWYRQAPGKERELVAAISSGGSTNYADSVKGRFTISRDNAKNTVYLQMNSLKTEDTAVYYCAAERYYRFVYTCYDYWGQGTQVTVSS | high polyreactivity
QVQLVESGGGLVQAGGSLRLSCAASGSTLFAYAMGWYRQAPGTERELVAAITSGASTNYADSVKGRFTISRDNAKNTVYLQMNSLKPEDTAVYYCAKDVSGTNPDYDYWGQGTQVTVSS | low polyreactivity
QVQLVESGGGLVQAGGSLRLSCAASGSTLFSYAMGWYRQAPRKEREFVAAISRRGGSTYYADSVKGRFTISRDNAKNTVYLQMNSLKPEVTAVYYCNTVRVHGFPIDRIYVYWGQGTQVTVSS | high polyreactivity
QVQLVESGGGLVQAGGSLRLSCAASGSTLFYAMGWYRQAPGKERELHAAISWSGGSTRYADSVKGRFTISRDNAKNTVYLQMNIMKPEDTAVYYCNTYTKHTGYYWKYDYWGQGTQVTVSS | low polyreactivity
QVQLVESGGGLVQAGGSLRLSCAASGSTLGGNAMGWYRRAPGKERELVAAITSSAGSTYYADSVKGRFTISRDNAKNTVYLQMNSLKPEDTAVYYCAADYSRDEYDYWGQGTQVTVSS | low polyreactivity
